These results are taken from publication PMC3564804, “A Visual Dual-Aptamer Logic Gate for Sensitive Discrimination of Prion Diseases-Associated Isoform with Reusable Magnetic Microparticles and Fluorescence Quantum Dots”.

The target of this data set is PrPC, native state (recombinant human prion protein) (human, UniProt P04156 23-231).

As to CTTACGGTGGGGCAATT (ssDNA, 5'-NH2) [Apt1], the binding signal was 2.41 fluorescence ratio.

Consider GTTTTGTTACAGTTCGTTTCTTTTCCCTGTCTTGTTTTGTTGTCT (ssDNA, 5'-biotin) [Apt2], for which the binding signal was 2.41 fluorescence ratio.
